Data from the nanobody polyreactivity screen of Harvey et al. (2022).

Assay: yeast display, Sf9 membrane polyspecificity reagent, FACS + sequencing; frameworks hold sequencing errors
In short: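 Sorting gates, low and high (top ~1%), were placed on anti-HA fluorescence to track expression and on streptavidin fluorescence to track reagent binding. A clone's polyreactivity label is taken from the gate it came out of. The reagent was 10% biotinylated, detergent-solubilized Sf9 membrane, applied for 1 hour at 4 °C to galactose-induced yeast display cells.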

Sequence	polyreactivity (PSR sort gate)
QDQLVESGGGLVQAGGSLRLSCAASASIFNVNTMGWYRQAPGKERELVAAISYSGGSTYYADSVKGRFTISRDIAKNTVYLQMISLKPEDTAFYYCNVSPTTTVDGGGYDSWGQGTQVTVSS	low polyreactivity
QVQLVESGGGLVQAGGTLRLSCAASGRTIRNYARGRYRQAPVKERELVAAITWSGGSTYYADSVKGRFTISRDNAKNTVYLQMNSLKPEDTAVYYCNVRYYTRTYNYWGQGTQVTVSS	high polyreactivity
QVQLVESGGGLVQAGGSLRLSCAASGSIFAVNAMGWYRQAPGKERELVAAITSGGNTYYADSVKGRFTISRDNAKNTVYLQMNSLKPEDTAVYYCATVFSVQGWYFGMNYWGQGTQVTVSS	low polyreactivity
QDQLVESGGGLVQAGGSLRLSCAASRSIFPLYAMGWYRQATGKEREMVAAISYSGGRTYYADSVKGRFTISRDNAKNTVYLQMNSLKPEDTAVYYCNTRQRVIDDYWGQGTQVSVSS	high polyreactivity
QVQLVESGGGLVQAGGSLRLSCAASGGIFSYNVMGWYRQAPGKERELVAAITRGGSTYYADSVKGRFTISRDNAKNTVYLQMNSLKPEDTAVYYCAAVRNYLWTGYDYWGQGTQVTVSS	high polyreactivity
QVQLVESGGGLVHAGGSLRLSCDASGSIFDGYGMGWYRQAPGKERELVASITWNDGSTYYADSVKGRFTISRDNAKNTVYLQMNSLKPEDTAVYYCAADQWGYEYDYWGQGTQVTVSS	low polyreactivity
QVQLVESGGGLVQAGGSLRLSCAASGRILYRYAMGWYRQAPGKERELVAAITWRGGTTYYADSVKGRFTISRDNAKNTVYLQMISLKPEDTAVYYCNSDWWRTLESDYWGQGTQVTVSS	low polyreactivity
QVQLVESGGGLVQAGGSLRLSCAASGRTFSHYAMGSYRQAPGKEREFVADITRSGGSTYYADSVKGRFTISRDNAKNTVYLQMNSLKPEDTAVYYCNAESYFEIYDYWGQGTQVTVSS	high polyreactivity
QVQLVESGGGLVQAGGSLRVSCAASGSTIITNAMGWYRQATGKERELVAAITYSTGATYYADSVKGRFTISRDNAKNTVYLQMNSQKPEDTACYYCAALLYFFMIDYWGQGTQETVSS	low polyreactivity
QVQLVESGGGLVQAGGSLRLSCADSGSTFRIFAMGWYRQAPGKERELVAAITGGGTHYADSVKGRFTISRDNAKNTVYLQMNSLTPEDTAVYYCAANRSKLYRYAMGYWGQGTQVTVSS	high polyreactivity
QVQLVESGGGIVQAGGSLRLSCAASGRIFGYYAMGWYRQARGKERELVAAITWSGGRTYYADSVKGRFTISRDNAKNTVYLQMNSLKPDDTAVYYCAAVVQGPNRKYNYWGQGTQVTVSS	high polyreactivity
QVQLVESGGGLVQAGGSLRLSCAASGITFRYYTMGWYRQAPGKERELVAAISSSGGSTYYADSVKGRFTISRDNAKNTVYLQMNSLKPEDTAVYYCAAESKYATSSPRRDYWGQGTQVTVSS	high polyreactivity
QVQLQESGGGLVQAGGSLRLSCEASGTIFKYYTMGWYRQAPGKEREFVAGINVGSTTNYADIVKGRFTISRDNAKNTVYLQMNSLKPEDTAVYYCAAYFIFLYYHDYWGLGTQVTVSS	low polyreactivity
QVQLVESGGDLVQAGGSLRLSCDASGRTCSANGMGSYRQSTGKERELVAAITRSGGITYYADSVKGRFTISRDNAKNTVYLQMNSLNPEDTADYYCAASVYSLSRRSWMDYWGQGTQVTVST	low polyreactivity
QVRLVESAGGIVQAGGSLRLSCAASGRTFSVHAMGWYTQAPGKERELVAAISWDGGSTYYGDSVKGRFTISRDNSKNTVYLQMNSLKPEDTAVYYCYKELYYAYDYWGLGTQVTVSS	low polyreactivity
QVQLVESGGGLVQAGGSLRLSCAASGSTFKPYAMGWYRQAPGKERELVAAITWSSGSTYYADSVKGRFTISRDNAKNTVYLQMNSLKPEDTAVYYCARDRYSVFEYDYWGQGTQVTVSS	low polyreactivity

Sequence	polyreactivity (PSR sort gate)
QVQLVESGGGLVQAGGSLRLSCAASGITFYLNAMGWYRQAPGKDRELVADITVSGGSTYYADSVKGRFTISRDNAKNTVYLQMNSLKPEDTAVYYCAADLTISYSQEYYYWGQGTQVTLSS	low polyreactivity
QVQLVESGGGLVQAGGSLRLSCAASGGTFPRYAMGWYRQAPGKERELVAAISRSGGSTYYADSVKGRFTISRDNAKNTVYLQMNSLKPEDTAVYYCATGYSYIMDYWGQGTQVTVSS	high polyreactivity
QVQLVESGGGLVQAGGSRRLSCAASGRTFVSNVMGWYRPAPGKDRELVAAINWSGDSTYYADSVKGRFTISRDNAKNTVYLQMNSLKPEDTAGYYCAVQGGYFDTWDGDYWGQGTQVTVSS	low polyreactivity
QVQLVESGGGLVQAGGSLRLSCAASGSIFRYYDMGWYRQAPGKERELVAAISDSTGTTYYADSVKGRFSISRDNAKNTVYLQMNSLKPEDTSVDYCTAGYDPRYDYWGQGTQVTVSS	high polyreactivity
QLQLVDSGGGLVQAGGSLRLSCAASGRIFSANAMGWYRQAPGKERELVAAIDGSDGITYYADSVKGRFTISRDNAKNTVYLQMNSLKPEDTAVYYCAAYLPYTTYRYRYDYWGQGNQVTVSS	high polyreactivity
QVQLVESGGGLVQAGGSLRLSCAASGRIFNLYAMGWYRPAPGKESELVAAISGSGGRTSYADSVKGRFTISRDNAKNTVYLQMNSLKPEDTAVYYCAADYSFYTSFRYDYWGQGTQVTVSS	low polyreactivity
QVQLVESGGGLVQAGGSLRLSCAASGSTFRYYVMGWYRQAPGKERELVARITSAASTNYADSVKGRFTISRDNAKNTVYLQMNSLKPEDTAVYYCAARKYGSRYRLKYDYWGQGTQVTVSS	high polyreactivity
QVQLVESGGGLVQAGGSLRLSCAASGRIFSVYALGWYRQAPGKERELVAAISSGDSTYYADSVKGRFTISRDNAKNTVYLQMNSLKPDDTAVFYCAATFPFHDGDYWGQGTQVTVSS	low polyreactivity
QDQLVESGGGLVQAGGSLRLSCAASGSIFADYVMGWYRQAPGKERELVAAITRRGRTYYADSVKGRFTISRDNAKNNVYLQMNSLKPEDTAVYYCAKVAYGKIDSWGQGTQVTVSS	low polyreactivity
QVQLVESGGGLVQAGGSLRLSCAASGRTFKLYAMGWYRQAPGKERELVAAISRSSGSTYYADSVKGRFTISRDNAKNTDYLQMNSLKPEDTAVYYCAARKNRAYGYWGQGTQVTVSS	high polyreactivity
QVQHVESGGGLFKAGGTLRLSCAASGRTIYPYAMVLYIQAPGKESELVAAIRWSGGSTYYADSVKGRFTISRDNSKNTVYLQMNSLKPVDTAVYYCNADWKSYRGPIVDYWGQGTQVSVSS	low polyreactivity
QVQLVESGGGLVQAGGSLRLSCAASGSILVYYAMGWYRQAPGKERELVAAISSGGSTNYADSVKGRFTISRDNAKNTVYLQMNSLKPEDTAVYYCAKESGWVGAIHYDYWGQGTQVTVSS	low polyreactivity
QVQLVESGGGLVQAGGSLRLSCAASGRIFKSYVMGWYRQAPGKERELVAAITRTGGSTYYADSVKGRFTISRDNAKYTVYLQMNSLTPEDTAVYYCNARYSWPRATWYDYWGQGTQVTVSS	high polyreactivity
QVQLVESGGGLVQAGGSLRLSCAASGLTFFGNAMGWYRQAPGKERELVATISSGGGTSYADSVKGRFTISRDNAKNTVYLQMNSLKPEDTAVYFCAAEIVEEFDYWGQGTQVTVSS	low polyreactivity
QVQLVESGGGLVQAGGSLRLSCAASGRIFRVNTMGWSRQAPGKERELVAAIRSSGTRPYYADSVKGRFTISRDHAKNTVYLQMNSLIPEDTAVYYCAAEHYWWYVFPSLWGEDDYWGQGTQVTVSS	high polyreactivity
QVQLVESGGGLVQAGGSLRLSCAASGSIFTKYAMGWYRPAPGKERELVAAISYSGGTRTYYADSVKGRFTSSRDNAKNTVYLQMNSLKPEDTAVYYCAARRYTRRANPAYPYEYWGQGTQVTVSS	high polyreactivity
